# Experimental data as given in patent US20200282100A1, “Hemostatic Dressings with Self-Assembling Peptide Hydrogels” (3-D Matrix, Ltd., priority 2016, published 2020).
# Experiment: Congo Red assay of gel formation of peptide solutions in PBS buffer (pH 7.4) with a hemostatic porous dressing
# Assay type: physicochemical
# Conditions: PBS pH 7.4, compared with pure RADA16 2.5%
# Procedure: A Congo Red assay was performed to assess gel formation of peptide solutions in a PBS buffer solution (pH 7.4) when used with a hemostatic porous dressing. RADA16 2.5% (PuraMatrix®) was plated on a glass slide and also on a hemostatic porous dressing on a glass slide. PuraMatrix® was spread on the surface of the hemostatic porous dressing using a stick. After 30 seconds, 1% Congo Red solution was added around and on top of the gel aliquots and then the excess Congo Red solution was wiped off prior to examination. RADA16 2.5% was also plated on an absorbable gelatin sponge (Surgifoam®, Ethicon) and on an absorbable oxidized regenerated cellulose woven dressing (Surgicel®, Ethicon). Visualization of gel formation determined the success or failure of gelation. […] Specifically, (1) and (2) show pure RADA16 2.5% (PuraMatrix®). In (3), (4), and (5), RADA16 2.5% is shown with absorbable gelatin sponge (Surgifoam®, Ethicon). In (6), (7), and (8), RADA16 2.5% is shown with absorbable oxidized regenerated cellulose woven dressing (Surgicel®, Ethicon).
# A Congo Red assay was performed to assess gel formation of peptide solutions in a PBS buffer solution (pH 7.4) when used with a hemostatic porous dressing.
# IEIK13 1.3% (pH 3.0) was plated on a glass slide and on a hemostatic porous dressing on a glass slide. […] Visualization of gel formation determined the success or failure of gelation. […]
sequence,measurement,setting,value
RADARADARADARADA [RADA16 2.5%],gel formation (visualization),"on absorbable gelatin sponge (Surgifoam, Ethicon)",gelled
same,gel formation (visualization),"on absorbable oxidized regenerated cellulose woven dressing (Surgicel, Ethicon)",gelled
